“Also recorded” adds a separate entry of the source. Like-named read-outs stand apart in the source and are kept apart here.
Key:
[1] = tested on: FITC-casein; assay: FITC-casein-decomposing activity; type: biochemical; details: for SUBSTRATE SPECIFICITY: substrate FITC-casein
[2] = tested on: lactase; assay: Lactase-fragmenting activity (LDU); type: biochemical, Kluyveromyces; details: for SUBSTRATE SPECIFICITY: substrate Lactase
Text: In addition, the “lactase-fragmenting action” in the claims and description can be an action by which the neutral lactase around 120 kDa in SDS-PAGE is fragmented, and preferably the fragments of the fragmented lactase show the neutral lactase activity. As a method for evaluating an influence on the fragmentation activity of PrB, the “lactase-fragmenting activity” can be also used as its index. This “lactase-fragmenting activity” indicates the enzyme activity of fragmenting the lactase protein, and an actual index can be defined as follows. When the band strength around 120 kDa of a sample to which PrB is not added is regarded as 100%, the band area relative value around 120 kDa of samples obtained by adding 1 to 4 mACU of PrB is found as a relative value (1 ACU means the amount of enzyme which raises the absorbance at 428 nm by 1 at 30° C. for an hour using azocasein as a substrate). Next, the amount of enzyme added when the lactase band after reaction at 30° C. for an hour decreases by 20% compared to when PrB is not added is regarded as 1 LDU (Lactase Degradation Unit) of lactase-fragmenting activity.

[3] = tested on: Azocoll; assay: Azocoll-decomposing activity; type: biochemical; details: for SUBSTRATE SPECIFICITY: substrate Azocoll
[4] = tested on: Azocasein; assay: Substrate specificity, Azocasein; type: biochemical
Text: As a method for evaluating an influence on the fragmentation activity of PrB, the “lactase-fragmenting activity” can be also used as its index. This “lactase-fragmenting activity” indicates the enzyme activity of fragmenting the lactase protein, and an actual index can be defined as follows. When the band strength around 120 kDa of a sample to which PrB is not added is regarded as 100%, the band area relative value around 120 kDa of samples obtained by adding 1 to 4 mACU of PrB is found as a relative value (1 ACU means the amount of enzyme which raises the absorbance at 428 nm by 1 at 30° C. for an hour using azocasein as a substrate). Next, the amount of enzyme added when the lactase band after reaction at 30° C. for an hour decreases by 20% compared to when PrB is not added is regarded as 1 LDU (Lactase Degradation Unit) of lactase-fragmenting activity.

[5] = Substrate specificity, Bz-Tyr-pNa; type: biochemical
[6] = Substrate specificity, Bz-Arg-pNa; type: biochemical
[7] = Substrate specificity, Ac-Phe-pNa; type: biochemical
[8] = tested on: BSA; assay: Substrate specificity, BSA; type: biochemical
[9] = tested on: Casein; assay: Substrate specificity, Casein; type: biochemical
[10] = tested on: lactase; assay: Fragmentation of lactase confirmed by SDS-PAGE; type: biochemical, Kluyveromyces
Description: First, the state of fragmentation of lactase in a lactase solution can be confirmed by SDS-PAGE using 10% polyacrylamide gel. For example, a lactase solution is diluted with purified water as needed, and mixed with Sample Buffer for SDS-PAGE at 1:1, and electrophoresis samples are prepared by heat treatment at 100° C. for 3 minutes. Next, the standard and electrophoresis samples are applied to 10% acrylamide gel, and subjected to electrophoresis. The molecular weight of lactase can be also roughly estimated by comparison with the standard. As the standard, CLEARLY Stained Protein Ladder (Takara #3454A) and the like are used. The gel after electrophoresis is subjected to protein staining using a CBB staining solution (BIO-RAD #161-0786).
The gel after staining was scanned as a grayscale image with a scanner GT-X820 manufactured by Seiko Epson Corporation. Furthermore, the concentration of each band (protein amount) can be also measured by Image J software (NIH, Bethesda, Md.). […]
As prior consideration, the following test was carried out about a relationship between the fragmentation and heat stability of lactase. […] As the conditions of the heat stability test, using an enzyme solution (lactase solution) diluted to 0.25 NLU/g, the activity after treatment at 50° C. for 10 minutes was calculated as the remaining activity (%) to that of an untreated sample. […]

[11] = pH 7.0, cited from earlier work
[12] = FITC-casein-decomposing activity
[13] = FITC-casein-decomposing activity, listed as K. lactis

B1: PrB: proteinase B derived from Kluyveromyces lactis, neutral protease with lactase-fragmenting activity, SEQ ID NO:1 (protein, listed as Kluyveromyces lactis)
chain: SFNTQNSAPWGLARISHREKLNLGSFNKYLYDDDAGKGVTAYVVDTGVNVNHKDFDGRAVWGKTIPKDDPDVDGNGHGTHCAGTIGSVHYGVAKNADIVAVKVLRSNGSGTMSDVVKGVEYVAEAHKKAVEEQKKGFKGSTANMSLGGGKSPALDLAVNAAVKAGVHFAVAAGNENQDACNTSPAAAENAITVGASTLSDERAYFSNWGKCVDIFGPGLNILSTYIGSDTATATLSGTSMATPHVVGLLTYFLSLQPDADSEYFHAAGGITPSQLKKKLIDFSTKNVLSDLPEDTVNY
- ACTIVATOR [1, 12]: Ca^2+
- HEAT STABILITY [1, 12]: 40 °C
- INHIBITOR [1, 12]: Cu^2+, Fe^2+
- OPTIMUM REACTION TEMPERATURE [1, 12]: about 40 °C
- OPTIMUM REACTION pH [1, 12]: about 8.0 pH
- pH STABILITY [1, 12]: 5.0 to 8.0 pH
- OPTIMUM REACTION TEMPERATURE [1, 13]: 40 °C
- OPTIMUM REACTION pH [1, 13]: pH 8.0
- pH STABILITY [1, 13]: pH 5.0~8.0
- SUBSTRATE SPECIFICITY [1]: high substrate specificity
- SUBSTRATE SPECIFICITY ([1]; listed as K. lactis): 78
- INHIBITOR ([2]; lactase-fragmenting activity): AEBSF
- OPTIMUM REACTION TEMPERATURE ([2]; lactase-fragmenting activity): 40 °C
- OPTIMUM REACTION pH ([2]; lactase-fragmenting activity): pH 7.0
- SUBSTRATE SPECIFICITY [2]: high substrate specificity
- SUBSTRATE SPECIFICITY ([2]; listed as K. lactis): 1159
- SUBSTRATE SPECIFICITY [3]: 1.9
- SUBSTRATE SPECIFICITY [4]: 1
- SUBSTRATE SPECIFICITY [5]: 0
- SUBSTRATE SPECIFICITY [6]: 0
- SUBSTRATE SPECIFICITY [7]: 0
- SUBSTRATE SPECIFICITY [8]: 0
- SUBSTRATE SPECIFICITY [9]: 0
- state of fragmentation of lactase (SDS-PAGE) [10]: fragmentation of lactase proceeded
- amount of PrB at which fragmentation was not caused ([10]; with respect to 1 NLU of lactase activity, added to F-1, 30° C. for 20 hours): 0.26 ng

B2: lactase described in Patent Literature 1: lactase from cultures of a strain of Kluyveromyces lactis (JP 60-18394 B) (protein, UniProt P00723 1-1025, looked up)
Beta-galactosidase: MSCLIPENLRNPKKVHENRLPTRAYYYDQDIFESLNGPWAFALFDAPLDAPDAKNLDWETAKKWSTISVPSHWELQEDWKYGKPIYTNVQYPIPIDIPNPPTVNPTGVYARTFELDSKSIESFEHRLRFEGVDNCYELYVNGQYVGFNKGSRNGAEFDIQKYVSEGENLVVVKVFKWSDSTYIEDQDQWWLSGIYRDVSLLKLPKKAHIEDVRVTTTFVDSQYQDAELSVKVDVQGSSYDHINFTLYEPEDGSKVYDASSLLNEENGNTTFSTKEFISFSTKKNEETAFKINVKAPEHWTAENPTLYKYQLDLIGSDGSVIQSIKHHVGFRQVELKDGNITVNGKDILFRGVNRHDHHPRFGRAVPLDFVVRDLILMKKFNINAVRNSHYPNHPKVYDLFDKLGFWVIDEADLETHGVQEPFNRHTNLEAEYPDTKNKLYDVNAHYLSDNPEYEVAYLDRASQLVLRDVNHPSIIIWSLGNEACYGRNHKAMYKLIKQLDPTRLVHYEGDLNALSADIFSFMYPTFEIMERWRKNHTDENGKFEKPLILCEYGHAMGNGPGSLKEYQELFYKEKFYQGGFIWEWANHGIEFEDVSTADGKLHKAYAYGGDFKEEVHDGVFIMDGLCNSEHNPTPGLVEYKKVIEPVHIKIAHGSVTITNKHDFITTDHLLFIDKDTGKTIDVPSLKPEESVTIPSDTTYVVAVLKDDAGVLKAGHEIAWGQAELPLKVPDFVTETAEKAAKINDGKRYVSVESSGLHFILDKLLGKIESLKVKGKEISSKFEGSSITFWRPPTNNDEPRDFKNWKKYNIDLMKQNIHGVSVEKGSNGSLAVVTVNSRISPVVFYYGFETVQKYTIFANKINLNTSMKLTGEYQPPDFPRVGYEFWLGDSYESFEWLGRGPGESYPDKKESQRFGLYDSKDVEEFVYDYPQENGNHTDTHFLNIKFEGAGKLSIFQKEKPFNFKISDEYGVDEAAHACDVKRYGRHYLRLDHAIHGVGSEACGPAVLDQYRLKAQDFNFEFDLAFE
- deactivated ([11]; 50° C. for 10 minutes): 45%
- deactivated ([11]; 55° C. for 10 minutes): 100%

B3: S. cerevisiae: PrB derived from S. cerevisiae, comparison enzyme (protein, UniProt P09232 281-574, looked up)
Cerevisin: EFDTQNSAPWGLARISHRERLNLGSFNKYLYDDDAGRGVTSYVIDTGVNINHKDFEKRAIWGKTIPLNDEDLDGNGHGTHCAGTIASKHYGVAKNANVVAVKVLRSNGSGTMSDVVKGVEYAAKAHQKEAQEKKKGFKGSTANMSLGGGKSPALDLAVNAAVEVGIHFAVAAGNENQDACNTSPASADKAITVGASTLSDDRAYFSNWGKCVDVFAPGLNILSTYIGSDDATATLSGTSMASPHVAGLLTYFLSLQPGSDSEFFELGQDSLTPQQLKKKLIHYSTKDILFDIPE
- HEAT STABILITY ([3]; Azocoll-decomposing activity): 25 °C
- INHIBITOR ([3]; Azocoll-decomposing activity): PCMB, PMSF,; also recorded: HgCl2
- OPTIMUM REACTION pH ([3]; Azocoll-decomposing activity): pH 7.0
- SUBSTRATE SPECIFICITY [3]: 9.1
- SUBSTRATE SPECIFICITY [4]: 1
- SUBSTRATE SPECIFICITY [5]: 0.2

Source: patent publication US20190075806A1, “PROTEINASE B AND LACTASE SOLUTION USING ITS PROPERTIES AND METHOD FOR PRODUCING THE SAME” (GODO SHUSEI CO., LTD., priority 2016, published 2019)
